Sequences and labels used below:
T1: 6xHis-Hop1 (budding yeast, UniProt P20050 1-605)
T1 sequence (looked up): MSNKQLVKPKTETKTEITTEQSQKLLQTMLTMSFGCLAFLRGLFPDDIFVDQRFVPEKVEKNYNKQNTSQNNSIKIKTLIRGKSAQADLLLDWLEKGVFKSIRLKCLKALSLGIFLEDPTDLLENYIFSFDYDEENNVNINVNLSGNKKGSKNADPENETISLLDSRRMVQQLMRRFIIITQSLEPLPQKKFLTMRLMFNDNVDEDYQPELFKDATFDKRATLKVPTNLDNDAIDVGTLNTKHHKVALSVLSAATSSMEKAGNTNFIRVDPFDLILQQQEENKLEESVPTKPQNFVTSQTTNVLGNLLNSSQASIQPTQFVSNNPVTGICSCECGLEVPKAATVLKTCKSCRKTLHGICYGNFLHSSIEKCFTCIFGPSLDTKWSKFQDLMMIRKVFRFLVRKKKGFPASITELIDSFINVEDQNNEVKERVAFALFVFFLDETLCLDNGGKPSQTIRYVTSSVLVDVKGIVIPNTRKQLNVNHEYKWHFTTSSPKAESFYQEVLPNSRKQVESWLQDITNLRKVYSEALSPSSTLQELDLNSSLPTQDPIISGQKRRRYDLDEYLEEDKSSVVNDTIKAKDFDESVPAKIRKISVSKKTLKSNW

T2: His-Orc1 (subunit of the purified His-ORC complex) (budding yeast, UniProt P54784 1-913)
T2 sequence: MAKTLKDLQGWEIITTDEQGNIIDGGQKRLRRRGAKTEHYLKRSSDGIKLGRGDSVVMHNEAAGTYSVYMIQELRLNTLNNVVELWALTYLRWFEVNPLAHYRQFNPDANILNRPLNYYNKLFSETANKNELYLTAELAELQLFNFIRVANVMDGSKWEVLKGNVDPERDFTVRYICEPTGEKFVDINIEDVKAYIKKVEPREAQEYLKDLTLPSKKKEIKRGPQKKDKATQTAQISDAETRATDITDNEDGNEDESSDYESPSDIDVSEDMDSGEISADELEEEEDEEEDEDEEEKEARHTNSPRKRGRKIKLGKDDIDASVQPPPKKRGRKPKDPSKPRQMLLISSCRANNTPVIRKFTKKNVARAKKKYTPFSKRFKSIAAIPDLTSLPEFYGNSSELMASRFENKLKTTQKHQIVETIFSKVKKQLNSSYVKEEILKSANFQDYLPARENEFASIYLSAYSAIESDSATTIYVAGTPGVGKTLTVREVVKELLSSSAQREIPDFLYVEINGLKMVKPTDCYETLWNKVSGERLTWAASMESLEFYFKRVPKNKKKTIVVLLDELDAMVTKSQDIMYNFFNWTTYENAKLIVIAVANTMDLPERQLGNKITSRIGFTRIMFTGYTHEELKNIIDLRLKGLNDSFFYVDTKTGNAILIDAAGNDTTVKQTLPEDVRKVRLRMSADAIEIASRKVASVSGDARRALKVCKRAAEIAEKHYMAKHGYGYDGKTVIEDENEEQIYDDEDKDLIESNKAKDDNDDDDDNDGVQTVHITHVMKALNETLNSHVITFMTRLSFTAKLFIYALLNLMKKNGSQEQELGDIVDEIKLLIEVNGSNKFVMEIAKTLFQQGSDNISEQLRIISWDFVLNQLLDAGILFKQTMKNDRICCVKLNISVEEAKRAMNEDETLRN

B1: His-MBP-Pch2 (natural protein, budding yeast, UniProt P38126 1-564, looked up)
chain: MSYIVDLQVRGSSLRVIKCMFREDEQISSLHSGSDSKQNSNKKLGEFLNLLKAVVKRKLESFPKDRLKTSIITGQELMREGQGSIEIKDPPTEAQQHLIRSLAKVLLHQFSSINGKVNTVNEGQDNLFLSLFVKKISIEQQSTSHVSIKLNFHEKINLGQHIDSILDSEETNESDTYHMGSVDEFIIYPFCCLEEQDELKNGSILSTEFDKIDLELDEDDGFEGETLNNCINSVGNFDIPLSKQTLNLVNISYLPGTTFEGQWESLYFGNNIKERLYSYATISLKIARFKQTGDSNQEDITTLITNNKLLLVHGPPGTGKTTLCKALCQKLSVRREFSDGSDTIDTNYKGIIIELSCARIFSKWFGESSKNISIVFKDIEELLKVNEGRGIFICLLIDEVEAIASSRTNLSSRNESTDGIRVVNTLLTQLDRLKKYHNFLALATSNLLDSLDDAFVDRADGVFYVGNPTAEGILHILKVCIEEMITSGIILFHARSTGVKFFNKYQDILRKIAIKCSTVDISGRTIRKLPLMCLSEYFRTFPVDDDEFVLALAMSARKLSAARK
B2: Orc5 (subunit of the purified His-ORC complex) (natural protein, budding yeast)
chain: MNVTTPEVAFREYQTNCLASYISADPDITPSNLILQGYSGTGKTYTLKKYFNANPNLHAVWLEPVELVSWKPLLQAIARTVQYKLKTLYPNIPTTDYDPLQVEEPFLLVKTLHNIFVQYESLQEKTCLFLILDGFDSLQDLDAALFNKYIKLNELLPKDSKINIKFIYTMLETSFLQRYSTHCIPTVMFPRYNVDEVSTILVMSRCGELMEDSCLRKRIIEEQITDCTDDQFQNVAANFIHLIVQAFHSYTGNDIFALNDLIDFKWPKYVSRITKENIFEPLALYKSAIKLFLSTDDNLSENGQGESAITTNRDDLENSQTYDLSIISKYLLIASYICSYLEPRYDASIFSRKTRIIQGRAAYGRRKKKEVNPRYLQPSLFAIERLLAIFQAIFPIQGKAESGSLSALREESLMKANIEVFQNLSELHTLKLIATTMNKNIDYLSPKVRWKVNVPWEIIKEISESVHFNISDYFSDIHE

For data set [1], the target named is T1, 6xHis-Hop1. The experiment in a line: pull-down.
Data set [2] deals with the molecule itself. The experiment in a line: SEC. (In general: Size exclusion chromatography separates by hydrodynamic size, large species first.)
For data set [3], the target named is T2, His-Orc1 (subunit of the purified …). Put plainly: cross-linking.
For data set [4], the target named is B1. Put plainly: cross-linking.

Broadly, the stoichiometry N is a count of units in the complex or per binding partner. In the case of B1, the binding result in data set [1] and in data set [3] was “binds” throughout. In addition, in data set [2], the “stoichiometry N” value was 6.

As to B2, in data set [4], the binding result was “binds”.

The values above are taken from publication doi:10.1101/598128 (bioRxiv, 2019).
